Experimental data: US8765433B2, “Alcohol dehydrogenases (ADH) useful for fermentive production of lower alkyl alcohols” (Butamax Advanced Biofuels LLC, priority 2009, dated 2014)

B1: AbADH: Acinetobacter baumannii AYE ADH, SEQ ID NO: 36 (protein)
chain: MENIMKAMVYYGDHDIRFEERKKPELIDPTDAIIKMTKTTICGTDLGIYKGKNPEIEQKEQEKNGSFNGRILGHEGIGIVEQIGSSVKNIKVGDKVIVSCVSRCGTCENCAKQLYSHCRNDGGWIMGYMIDGTQAEYVRTPFADTSLYVLPEGLNEDVAVLLSDALPTAHEIGVQNGDIKPGDTVAIVGAGPVGMSALLTAQFYSPSQIIMIDMDENRLAMAKELGATDTINSGTEDAIARVMELTNQRGVDCAIEAVGIEPTWDICQNIVKEGGHLANVGVHGKSVNFSLEKLWIKNLTITTGLVNANTTGMLLKSCCSGKLPMEKLATHHFKFNEIEKAYDVFINAAKEKAMKVIIDF
modifications: Acinetobacter baumannii AYE
B2: PzADH: Phenylobacterium zucineum HLK1 ADH, SEQ ID NO: 34 (protein)
chain: MKALVYGGPGQKSLEDRPKPELQAPGDAIVRIVKTTICGTDLHILKGDVATCAPGRILGHEGVGIVDSVGAAVTAFRPGDHVLISCISACGKCDYCRRGMYSHCTTGGWILGNEIDGTQAEYVRTPHADTSLYPVPAGADEEALVMLSDILPTGFECGVLNGKVAPGGTVAIVGAGPIGLAALLTAQFYSPAEIIMIDLDDNRLGIARQFGATQTINSGDGRAAETVKALTGGRGVDTAIEAVGVPATFELCQDLVGPGGVIANIGVHGRKVDLHLDRLWSQNIAITTRLVDTVSTPMLLKTVQSRKLDPSQLITHRFRLDEILAAYDTFARAADTQALKVIIAA
modifications: Phenylobacterium zucineum HLK1
B3: HLADH: Horse-liver ADH (A-6128) purchased from Sigma; control polypeptide, SEQ ID NO: 21 (protein, listed as Equus caballus)
chain: MSTAGKVIKCKAAVLWEEKKPFSIEEVEVAPPKAHEVRIKMVATGICRSDDHVVSGTLVTPLPVIAGHEAAGIVESIGEGVTTVRPGDKVIPLFTPQCGKCRVCKHPEGNFCLKNDLSMPRGTMQDGTSRFTCRGKPIHHFLGTSTFSQYTVVDEISVAKIDAASPLEKVCLIGCGFSTGYGSAVKVAKVTQGSTCAVFGLGGVGLSVIMGCKAAGAARIIGVDINKDKFAKAKEVGATECVNPQDYKKPIQEVLTEMSNGGVDFSFEVIGRLDTMVTALSCCQEAYGVSVIVGVPPDSQNLSMNPMLLLSGRTWKGAIFGGFKSKDSVPKLVADFMAKKFALDPLITHVLPFEKINEGFDLLRSGESIRTILTF
B4: TADH: Thermus sp. ATN1 ADH, SEQ ID NO: 33 (protein)
chain: MRAVVFENKERVAVKEVNAPRLQHPLDALVRVHLAGICGSDLHLYHGKIPVLPGSVLGHEFVGQVEAVGEGIQDLQPGDWVVGPFHIACGTCPYCRRHQYNLCERGGVYGYGPMFGNLQGAQAEILRVPFSNVNLRKLPPNLSPERAIFAGDILSTAYGGLIQGQLRPGDSVAVIGAGPVGLMAIEVAQVLGASKILAIDRIPERLERAASLGAIPINAEQENPVRRVRSETNDEGPDLVLEAVGGAATLSLALEMVRPGGRVSAVGVDNAPSFPFPLASGLVKDLTFRIGLANVHLYIDAVLALLASGRLQPERIVSHYLPLEEAPRGYELFDRKEALKVLLVVRG
modifications: Thermus sp. ATN1
B5: CbADH: Clostridium beijerinckii ADH, SEQ ID NO: 29 (protein, listed as Clostridium beijerinckii)
chain: MKGFAMLGINKLGWIEKERPVAGSYDAIVRPLAVSPCTSDIHTVFEGALGDRKNMILGHEAVGEVVEVGSEVKDFKPGDRVIVPCTTPDWRSLEVQAGFQQHSNGMLAGWKFSNFKDGVFGEYFHVNDADMNLAILPKDMPLENAVMITDMMTTGFHGAELADIQMGSSVVVIGIGAVGLMGIAGAKLRGAGRIIGVGSRPICVEAAKFYGATDILNYKNGHIVDQVMKLTNGKGVDRVIMAGGGSETLSQAVSMVKPGGIISNINYHGSGDALLIPRVEWGCGMAHKTIKGGLCPGGRLRAEMLRDMVVYNRVDLSKLVTHVYHGFDHIEEALLLMKDKPKDLIKAVVIL
B6: GbADH: Geobacillus sp. WCH70 ADH, SEQ ID NO: 37 (protein)
chain: MKALTYLGPGKKEVMEKPKPKIEKETDAIVKITKTTICGTDLHILSGDVPTVEEGRILGHEGVGIIEEVGSGVKNFKKGDRVLISCITSCGKCENCKKGLYAHCEDGGWILGHLIDGTQAEYVRIPHADNSLYPIPEGVDEEALVMLSDILPTGFEIGVLNGKVQPGQTVAIIGAGPVGMAALLTAQFYSPAEIIMVDLDDNRLEVAKKFGATQVVNSADGKAVEKIMELTGGKGVDVAMEAVGIPVTFDICQEIVKPGGYIANIGVHGKSVEFHIEKLWIRNITLTTGLVNTTSTPMLLKTVQSKKLKPEQLITHRFAFADIMKAYEVFGNAAKEKALKVIISND
modifications: Geobacillus sp. WCH70
B7: ScADH7: Saccharomyces cerevisiae ADH7 alcohol dehydrogenase, SEQ ID NO: 23 (protein, listed as Saccharomyces cerevisiae)
chain: MLYPEKFQGIGISNAKDWKHPKLVSFDPKPFGDHDVDVEIEACGICGSDFHIAVGNWGPVPENQILGHEIIGRVVKVGSKCHTGVKIGDRVGVGAQALACFECERCKSDNEQYCTNDHVLTMWTPYKDGYISQGGFASHVRLHEHFAIQIPENIPSPLAAPLLCGGITVFSPLLRNGCGPGKRVGIVGIGGIGHMGILLAKAMGAEVYAFSRGHSKREDSMKLGADHYIAMLEDKGWTEQYSNALDLLVVCSSSLSKVNFDSIVKIMKIGGSIVSIAAPEVNEKLVLKPLGLMGVSISSSAIGSRKEIEQLLKLVSEKNVKIWVEKLPISEEGVSHAFTRMESGDVKYRFTLVDYDKKFHK
B8: MsADH: Methylocella silvestris BL2 ADH, SEQ ID NO: 35 (protein)
chain: MKALVYHGPGQKALEERPKPQIEASGDAIVKIVKTTICGTDLHILKGDVATCAPGRILGHEGVGIIDSVGAGVTAFQPGDRVLISCISSCGKCDYCRRGLYSHCTTGGWILGNEIDGTQAEYVRTPHADTSLYRIPAGADEEALVMLSDILPTGFECGVLNGKVEPGSTVAIVGAGPIGLAALLTAQFYAPGDIIMIDLDDNRLDVARRFGATHTINSGDGKAAEAVKALTGGIGVDTAIEAVGIPATFLLCEDIVAPGGVIANVGVHGVKVDLHLERLWAHNITITTRLVDTVTTPMLLKTVQSKKLDPLQLITHRFTLDHILDAYDTFSRAADTKALKVIVSA
modifications: Methyloceclla silvestris BL2
B9: RnADH1: Rattus norvegicus ADH1, SEQ ID NO: 32 (protein, listed as Rattus norvegicus)
chain: MSTAGKVIKCKAAVLWEPHKPFTIEDIEVAPPKAHEVRIKMVATGVCRSDDHAVSGSLFTPLPAVLGHEGAGIVESIGEGVTCVKPGDKVIPLFSPQCGKCRICKHPESNLCCQTKNLTQPKGALLDGTSRFSCRGKPIHHFISTSTFSQYTVVDDIAVAKIDAAAPLDKVCLIGCGFSTGYGSAVQVAKVTPGSTCAVFGLGGVGLSVVIGCKTAGAAKIIAVDINKDKFAKAKELGATDCINPQDYTKPIQEVLQEMTDGGVDFSFEVIGRLDTMTSALLSCHSACGVSVIVGVPPSAQSLSVNPMSLLLGRTWKGAIFGGFKSKDAVPKLVADFMAKKFPLEPLITHVLPFEKINEAFDLLRAGKSIRTVLTF
B10: SadB: Achromobacter xylosoxidans Secondary Alcohol Dehydrogenase B; control polypeptide, SEQ ID NO: 26 (protein)
chain: MKALVYHGDHKISLEDKPKPTLQKPTDVVVRVLKTTICGTDLGIYKGKNPEVADGRILGHEGVGVIEEVGESVTQFKKGDKVLISCVTSCGSCDYCKKQLYSHCRDGGWILGYMIDGVQAEYVRIPHADNSLYKIPQTIDDEIAVLLSDILPTGHEIGVQYGNVQPGDAVAIVGAGPVGMSVLLTAQFYSPSTIIVIDMDENRLQLAKELGATHTINSGTENVVEAVHRIAAEGVDVAIEAVGIPATWDICQEIVKPGAHIANVGVHGVKVDFEIQKLWIKNLTITTGLVNTNTTPMLMKVASTDKLPLKKMITHRFELAEIEHAYQVFLNGAKEKAMKIILSNAGAA
modifications: Achromobacter xylosoxidans

Tests used:
[1] = Isobutanol oxidation assay; type: biochemical; conditions: Table 8
Experimental: (§1) As a routine practice, the crude extracts and purified proteins were assayed for butanol oxidation activity, in order to ensure that the recombinant proteins were active throughout the purification process. […] Alcohol oxidation activities were carried out in 50 mM sodium phosphate buffer at pH 8.8 and aldehyde reduction reactions were assayed in 190 mM potassium phosphate buffer at pH 7.0. Depending on the nature of reaction being carried out, the enzyme and cofactor stocks were diluted in the reaction buffers at the respective pHs. Either buffer or cell extract prepared from the proprietary E. coli strain (with no ADH plasmid) was used as the negative control for assays with purified protein and cell-free extracts, respectively.
Kinetic constants of the ADH enzymes were calculated and compared to identify those candidate ADH enzymes with the most desirable properties for the conversion of isobutyraldehyde to isobutanol in the last step of the engineered pathway for isobutanol production. The assays for determining the kinetic constants were carried out using initial rates from the assays described above. […] The concentration of a given enzyme was such that it was conducive for the measurement of initial velocities over a 1-min time course. For each enzyme, Michaelis-Menten plots were generated with a broad range of substrate concentrations. Rough estimates of KM were obtained, based on which the assays were redesigned so as to use substrate concentrations in the range 0.5 to 10 times the KM value, to be able to obtain the appropriate kinetic constants. […] When calculating the KI for isobutanol, the same reactions were carried out in the presence of varying concentrations of isobutanol (generally 0-535 mM) in the reaction (see FIG. 7, for example). Reactions with isobutanol substrate were performed at 30° C. in 50 mM Sodium phosphate buffer, pH 8.8, containing 7.5 mM NAD. The Enzyme kinetics module (Version 1.3) of SigmaPlot 11 (Systat Software, Inc.) was used to fit data to Michaelis-Menten equations and calculate the kinetic constants. The kcat/KM is derived from the individual numbers of kcat and KM and not an experimentally determined value. The ratios of the KM, KI, and kcat/KM for each candidate enzyme as compared to the same parameter for SadB are given in Table 9.

[2] = Cofactor specificity in isobutyraldehyde reduction reactions; type: biochemical; conditions: for COFACTOR PREFERENCE: isobutyraldehyde reduction, NADH or NADPH as cofactor
Experimental: as §1
In initial experiments, there were insufficient levels of protein expression with EhADH1 and RpADH8. […] It is believed that one of skill in the art could further optimize expression and assay conditions for these candidates. Sufficient amounts of active protein could be purified with all other enzymes for which data are presented. […]

| Molecule | conversion of isobutanol to isobutyraldehyde [1] | Other enzymatic properties and cofactor preference ([2]; Table 8) | COFACTOR PREFERENCE [2] | Other enzymatic properties and cofactor preference ([2]; Table 7) |
| --- | --- | --- | --- | --- |
| B1 | No measureable | NADH specific | NADH |  |
| B2 | No measureable | NADH specific | NADH |  |
| B3 |  |  | NADH |  |
| B4 |  |  | NADH | NADH specific |
| B5 |  |  | NADPH | NADPH specific |
| B6 | No measureable | NADPH specific | NADPH |  |
| B7 |  |  | NADPH | NADPH specific |
| B8 | No measureable | NADH specific | NADH |  |
| B9 |  |  | NADH | NADH specific |
| B10 |  |  | NADH |  |
